The record followed here is patent US20230414780A1 (VECT HORUS, published 2023).

Assay [1] addresses T1, human transferrin receptor (hTfR) fused to EGFP, on CHO cells (human, UniProt P02786 1-760).
T1 construct: whole, on cells; also called human TfR; CHO-hTfR-EGFP; not shown: EGFP from pEGFP-C1 vector, fused to the N-terminal (intracellular) end of hTfR
Briefly: apparent Kd, flow cytometry, CHO cells. As to the method:
(§1) The binding properties of VHHs with affinity for the TfR from different species (i.e., human (h), mouse (m) and rhesus monkey (rh)) were tested using flow cytometry, and apparent affinities (Kd app) were determined. All experiments were performed in 96 well plates using 2×10⁵ cells/well, at 4° C. with shaking. CHO cell lines expressing the hTfR, mTfR or rhTfR fused to EGFP were saturated with PBS/BSA 2% solution during 30 min to avoid nonspecific binding, followed by incubation with purified VHHs at increasing concentrations for 1 hr. After one wash in PBS/BSA 2%, cells were incubated for 1 hr with an anti-6His tag antibody (mouse), washed twice with PBS/BSA 2%, and incubated for 1 hr with an Alexa647-conjugated anti-mouse secondary antibody. After two last washes in PBS/BSA 2%, cells were fixed by incubation for 15 min with PBS/PFA 2%, washed once with PBS and finally resuspended in PBS. Fluorescence levels were assessed using an Attune NxT flow cytometer (Thermo Fisher Scientific). Experimental data were fitted with GraphPad Prism® software using a nonlinear fit to determine the apparent Kd constants. […] Table 5 hereafter summarizes apparent Kd obtained for the tested VHHs.

Assay [2] concerns the target T2, mouse transferrin receptor (mTfR) fused to EGFP, on CHO cells (mouse, UniProt Q62351 1-763).
T2 construct: whole, on cells; also called mouse TfR; CHO-mTfR-EGFP; not shown: EGFP
Briefly: apparent Kd, flow cytometry, CHO cells. The method, then:
as §1

Assay [3] concerns the target T3, rhesus monkey transferrin receptor (rhTfR) fused to EGFP, on CHO cells (rhesus monkey).
T3 construct: whole, on cells; also called rhesus monkey TfR
The experiment in a line: apparent Kd, flow cytometry, CHO cells. The method, then: as §1

In assay [4] the target is T4, human TfR ectodomain fused to a mouse IgG1 Fc fragment (human, UniProt P02786 89-760).
T4 construct: extracellular domain; ectodomain fused to the N-terminal end of the Fc, made in-house; not shown: mouse IgG1 Fc fragment
Briefly: SPR, kinetic. The method, then:
(§2) Binding properties of some VHHs were also evaluated using Surface Plasmon Resonance (SPR) experiments. The human, mouse and rhesus monkey TfR (having respectively GeneBank number NM_003234.2, NM_011638, NC_041755.1) ectodomains were fused to the N-terminal end of a mouse IgG1 Fc fragment and the recombinant proteins were produced and purified in-house. Interaction of VHHs with the receptors was tested using a Biacore T200 (GE Healthcare). Receptors were immobilized on an HC 1500M or a CM5 sensor chip (Xantec) either directly or on an anti-mouse IgG previously immobilized. VHHs were injected over flowcell by using the single-cycle kinetic or the multiple-cycle kinetic methods.
(In general: SPR reads the build-up and loss of mass on a sensor chip optically.)

For assay [5], the target named is T5, mouse TfR ectodomain fused to a mouse IgG1 Fc fragment (mouse, UniProt Q62351 89-763).
T5 construct: extracellular domain; not shown: mouse IgG1 Fc fragment
Briefly: SPR, kinetic. The method, then:
as §2

T1 sequence (P02786 whole entry, the tested form may be a part): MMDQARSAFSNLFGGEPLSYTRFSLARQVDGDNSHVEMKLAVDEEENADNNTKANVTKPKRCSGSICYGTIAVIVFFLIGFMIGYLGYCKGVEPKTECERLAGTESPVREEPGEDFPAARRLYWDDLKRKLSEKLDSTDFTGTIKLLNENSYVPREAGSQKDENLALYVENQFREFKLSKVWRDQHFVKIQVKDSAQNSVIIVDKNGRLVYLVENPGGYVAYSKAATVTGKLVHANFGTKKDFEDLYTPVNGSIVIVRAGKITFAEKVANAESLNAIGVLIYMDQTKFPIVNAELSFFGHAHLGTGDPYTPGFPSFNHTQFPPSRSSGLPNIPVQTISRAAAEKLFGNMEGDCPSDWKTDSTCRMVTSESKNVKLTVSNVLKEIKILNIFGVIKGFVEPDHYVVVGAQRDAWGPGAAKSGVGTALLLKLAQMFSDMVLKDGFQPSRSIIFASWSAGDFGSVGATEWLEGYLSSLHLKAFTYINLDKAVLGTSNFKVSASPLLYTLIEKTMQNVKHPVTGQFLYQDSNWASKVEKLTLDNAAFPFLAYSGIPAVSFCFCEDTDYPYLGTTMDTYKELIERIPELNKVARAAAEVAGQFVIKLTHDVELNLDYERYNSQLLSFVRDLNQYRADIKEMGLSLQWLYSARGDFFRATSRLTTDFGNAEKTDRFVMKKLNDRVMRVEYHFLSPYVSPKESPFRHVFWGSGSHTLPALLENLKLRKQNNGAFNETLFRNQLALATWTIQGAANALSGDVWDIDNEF
T5 sequence (Q62351 89-763): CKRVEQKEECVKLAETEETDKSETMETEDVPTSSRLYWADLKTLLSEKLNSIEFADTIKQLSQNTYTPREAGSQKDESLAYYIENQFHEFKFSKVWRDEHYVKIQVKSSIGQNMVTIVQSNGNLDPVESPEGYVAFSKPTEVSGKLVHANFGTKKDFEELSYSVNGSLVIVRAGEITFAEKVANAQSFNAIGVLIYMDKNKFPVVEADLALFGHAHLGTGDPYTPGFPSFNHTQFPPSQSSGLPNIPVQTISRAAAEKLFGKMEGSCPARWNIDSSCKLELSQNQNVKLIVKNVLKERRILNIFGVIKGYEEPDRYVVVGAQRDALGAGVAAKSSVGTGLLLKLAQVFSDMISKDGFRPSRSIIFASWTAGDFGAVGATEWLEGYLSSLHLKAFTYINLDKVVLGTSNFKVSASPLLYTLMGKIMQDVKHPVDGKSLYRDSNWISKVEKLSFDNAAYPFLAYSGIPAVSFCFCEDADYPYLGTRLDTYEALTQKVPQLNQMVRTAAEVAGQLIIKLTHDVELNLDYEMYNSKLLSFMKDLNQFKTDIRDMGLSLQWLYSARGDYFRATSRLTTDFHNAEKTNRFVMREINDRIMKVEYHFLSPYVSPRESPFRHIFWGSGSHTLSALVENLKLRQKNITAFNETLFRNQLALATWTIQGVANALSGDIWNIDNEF
T2 sequence (Q62351 whole entry, the tested form may be a part): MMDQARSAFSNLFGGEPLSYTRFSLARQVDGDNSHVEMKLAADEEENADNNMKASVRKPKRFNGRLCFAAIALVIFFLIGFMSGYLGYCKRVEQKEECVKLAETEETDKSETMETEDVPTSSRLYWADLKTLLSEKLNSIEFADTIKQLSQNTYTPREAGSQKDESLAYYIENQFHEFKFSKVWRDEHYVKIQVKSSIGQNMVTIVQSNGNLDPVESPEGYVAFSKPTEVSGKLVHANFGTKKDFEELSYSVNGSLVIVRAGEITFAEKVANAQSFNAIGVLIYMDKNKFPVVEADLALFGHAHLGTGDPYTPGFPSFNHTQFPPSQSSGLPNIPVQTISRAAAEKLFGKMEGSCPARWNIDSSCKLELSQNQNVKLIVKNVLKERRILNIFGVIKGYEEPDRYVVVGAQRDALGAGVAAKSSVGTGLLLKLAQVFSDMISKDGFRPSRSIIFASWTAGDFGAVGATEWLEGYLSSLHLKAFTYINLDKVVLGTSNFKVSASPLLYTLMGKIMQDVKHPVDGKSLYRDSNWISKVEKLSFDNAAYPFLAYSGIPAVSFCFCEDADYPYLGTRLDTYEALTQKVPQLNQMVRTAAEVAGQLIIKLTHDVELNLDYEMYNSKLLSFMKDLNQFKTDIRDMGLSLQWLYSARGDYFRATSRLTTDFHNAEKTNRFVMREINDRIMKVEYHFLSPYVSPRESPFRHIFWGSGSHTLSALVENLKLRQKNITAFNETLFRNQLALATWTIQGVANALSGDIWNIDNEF
T4 sequence (P02786 89-760): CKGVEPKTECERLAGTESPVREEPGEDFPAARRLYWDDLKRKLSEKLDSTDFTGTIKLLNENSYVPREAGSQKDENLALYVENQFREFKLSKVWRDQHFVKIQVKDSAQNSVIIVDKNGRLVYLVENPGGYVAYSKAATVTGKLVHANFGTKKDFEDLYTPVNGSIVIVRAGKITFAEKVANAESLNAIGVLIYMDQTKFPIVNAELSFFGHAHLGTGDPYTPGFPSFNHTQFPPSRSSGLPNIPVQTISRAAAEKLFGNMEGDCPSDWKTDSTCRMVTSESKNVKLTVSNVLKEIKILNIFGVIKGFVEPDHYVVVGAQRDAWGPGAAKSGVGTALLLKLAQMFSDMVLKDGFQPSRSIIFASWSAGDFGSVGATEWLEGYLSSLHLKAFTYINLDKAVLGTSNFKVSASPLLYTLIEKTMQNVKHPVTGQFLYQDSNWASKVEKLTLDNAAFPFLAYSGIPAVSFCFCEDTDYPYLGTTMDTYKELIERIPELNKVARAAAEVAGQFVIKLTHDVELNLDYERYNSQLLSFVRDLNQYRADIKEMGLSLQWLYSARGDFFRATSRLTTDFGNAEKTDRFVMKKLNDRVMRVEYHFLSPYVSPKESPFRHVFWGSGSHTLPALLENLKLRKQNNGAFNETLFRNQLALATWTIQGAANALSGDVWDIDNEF

B1: B4a (VHH)
VHH: EVQLVESGGGLVQAGGSLRLSCTASGRTVSNYRMGWFRQTPGKEREFVAAIAWAGGSLTYADSVKGRFTISRDNAKNTVYLQMNSLEPTDTAVYYCKGSRIFPTRDYWGKGTQVTVSS
In the case of B1, the Kd is 692 nM in assay [1], 409 nM in assay [2] and 479 nM in assay [3].

B2: C5^V13h20 (VHH)
VHH: EVQLVESGGGVVQPGGSLRLSCAASGTDFSINFIRWYRQAPGKGLEFVAGFSATGNTNYADSVKGRFTISRDNAKNAVYLQMNSLRPEDTAVYYCYMLDKWGQGTQVTVSS
In the case of B2, the Kd in assay [4] was determined as 4.55 nM; in assay [1] it was 3.8 nM; in assay [2] it was 246 nM; in assay [3] it was 549 nM. Also, the koff – broadly, the first-order rate constant of dissociation – in assay [4] is 0.00357 s⁻¹. In addition, the kon – broadly, the rate constant with which the complex forms – in assay [4] turned out to be 786000 M⁻¹ s⁻¹.

B3: C5^h20 (VHH)
VHH: EVQLVESGGGVVQPGGSLRLSCAASGTDFSINFIRWYRQAPGKGLEFVAGFTATGNTNYADSVKGRFTISRDNAKNAVYLQMNSLRPEDTAVYYCYMLDKWGQGTQVTVSS
B3: the Kd in assay [4] was determined as 0.985 nM; in assay [1] it was 4.1 nM; in assay [2], 22 nM; in assay [3] it was 40 nM. The molecule further returned a koff in assay [4] of 0.00105 s⁻¹. Moreover, the kon in assay [4] is 866000 M⁻¹ s⁻¹.

B4: C5^h9 (VHH)
VHH: EVQLVESGGGVVQPGGSLRLSCAASGTDFSINFIRWYRQAPGKGLEFVAGFTATGNTNYADSVKGRFTISRDNAKNTLYLQMNSLRPEDTAVYYCYMLDKWGQGTQVTVSS
With B4, the Kd in assay [4] worked out at 10.6 nM; in assay [1], 6.1 nM; in assay [2], 431 nM; in assay [3] it was 493 nM. In addition, the koff in assay [4] was 0.00582 s⁻¹. The same molecule gave an on-rate (kon) in assay [4] of 549000 M⁻¹ s⁻¹.

B5: VHH A16 (C5^V16) (VHH)
VHH: EVQLVESGGGVVQPGGSLKLSCVASGTDFSINFIRWYRQAPGKQREFVAGFTATGNTNYADSMKGRFTISRDNTKNAVYLQIDSLKPEDTAVYYCYILDKWGQGTQVTVSS
For the molecule B5, the Kd is 14.5 nM in assay [4], 4.7 nM in assay [1], 131 nM in assay [2] and 425 nM in assay [3]. The koff in assay [4] came to 0.00577 s⁻¹. In assay [4], this molecule displayed an on-rate (kon) of 459000 M⁻¹ s⁻¹.

B6: VHH D (H3) (VHH)
VHH: EVQLVESGGGEVQPGGSLKLSCVASGTDFSINFVRWYRQRPGKQREWVAGFTANGDTNYPDSMKGRFTISRDNAKNTVYLQINSLKSEDTAVYYCYMLDNWGQGTQVTVSS
As for B6, the Kd was found to be 0.0333 nM in assay [4]; 15.6 nM in assay [5]; 1.9 nM in assay [1]; 56 nM in assay [2]; 1.5 nM in assay [3]. The results for the koff in assay [4] and in assay [5] were 3.3e-05 s⁻¹ and 0.00909 s⁻¹, respectively. Also, the kon is 1.01e+06 M⁻¹ s⁻¹ in assay [4] and 581000 M⁻¹ s⁻¹ in assay [5].

B7: C5^h22 (VHH)
VHH: EVQLVESGGGVVQPGGSLRLSCAASGTDFSINFIRWYRQAPGKGREFVAGFTATGNTNYADSVKGRFTISRDNAKNTLYLQMNSLRPEDTAVYYCYMLDKWGQGTQVTVSS
As to B7, the Kd in assay [4] is 8.96 nM; in assay [1], 4.9 nM; in assay [2], 602 nM; in assay [3], 755 nM. In assay [4], this molecule registered a koff of 0.00906 s⁻¹. In assay [4], this molecule gave a kon of 1.5e+06 M⁻¹ s⁻¹.

B8: B8^V1 (VHH)
VHH: EVQLVESGGGVVQPGGSLRLSCAADGEIFSINFMRWYRQAPGKQREWVAGFTRDGSTNYPDSAKGRFTISRDNAKNTVYLQIDSLKPEDTAVYYCYMLDTWGQGTQVTVSS
In the case of B8, the Kd in assay [4] was found to be 6.04 nM; in assay [5], 1960 nM; in assay [1], 192 nM; in assay [2] it was 313 nM; in assay [3] it was 138 nM. The figures for the dissociation rate constant (koff) in assay [4] and in assay [5] were 0.0011 s⁻¹ and 0.0125 s⁻¹, respectively. Also, the on-rate constant (kon) in assay [4] was 183000 M⁻¹ s⁻¹; in assay [5], 6510 M⁻¹ s⁻¹.

B9: B8^V25 (VHH)
VHH: EVQLVESGGGVVQPGGSLRLSCAASGEIFSINFMRWYRQAPGKQREWVAAFTRDGSTNYPDSAKGRFTISRDNAKNTVYLQIDSLKPEDTAVYYCYMLDTWGQGTQVTVSS
For B9, the Kd came out at 14 nM in assay [1], 2350 nM in assay [2] and 425 nM in assay [3].

B10: B8^V19 (VHH)
VHH: EVQLVESGGGVVQPGGSLRLSCAASGEIFSINFMRWYRQAPGKQRHWVAGFTRDGSTNYPDSAKGRFTISRDNAKNTVYLQIDSLKPEDTAVYYCYMLDTWGQGTQVTVSS
Regarding B10, the Kd in assay [1] was 6.2 nM; in assay [2] it was 7.6 nM; in assay [3] it was 2.3 nM.

B11: B8^V21 (VHH)
VHH: EVQLVESGGGVVQPGGSLRLSCAASGEIFSINNMRWYRQAPGKQREWVAGFTRDGSTNYPDSAKGRFTISRDNAKNTVYLQIDSLKPEDTAVYYCYMLDTWGQGTQVTVSS
Regarding B11, the values for the Kd in assay [1], in assay [2] and in assay [3] were 29 nM, 3350 nM and 469 nM, respectively.

B12: B8^V15 (VHH)
VHH: EVQLVESGGGVVQPGGSLRLSCAASGEIFSINFMRWYRQAPGKQREWVAGFTRDDSTNYPDSAKGRFTISRDNAKNTVYLQIDSLKPEDTAVYYCYMLDTWGQGTQVTVSS
Take B12: the Kd in assay [1] is 4.7 nM; in assay [2] it was 684 nM; in assay [3], 4.3 nM.

B13: B8^V20 (VHH)
VHH: EVQLVESGGGVVQPGGSLRLSCAASGEIFSINFMRWYRQAPGKQREWVAGFTRDGSHNYPDSAKGRFTISRDNAKNTVYLQIDSLKPEDTAVYYCYMLDTWGQGTQVTVSS
B13: the figures for the Kd in assay [1], in assay [2] and in assay [3] were 4.5 nM, 6.4 nM and 1.8 nM, respectively.

B14: B8^V23 (VHH)
VHH: EVQLVESGGGVVQPGGSLRLSCAASGEIFSINFMIWYRQAPGKQREWVAGFTRDGSTNYPDSAKGRFTISRDNAKNTVYLQIDSLKPEDTAVYYCYMLDTWGQGTQVTVSS
Take B14: the Kd came out at 29 nM in assay [1], 1550 nM in assay [2] and 939 nM in assay [3].

B15: B8^V18 (VHH)
VHH: EVQLVESGGGVVQPGGSLRLSCAASGEIHSINFMRWYRQAPGKQREWVAGFTRDGSTNYPDSAKGRFTISRDNAKNTVYLQIDSLKPEDTAVYYCYMLDTWGQGTQVTVSS
In the case of B15, the Kd in assay [1] amounted to 3.8 nM; in assay [2], 43 nM; in assay [3], 1.6 nM.

B16: B8^V28 (VHH)
VHH: EVQLVESGGGVVQPGGSLRLSCAASGEIFSINFMRWYRQAPGKQREWVAGFTRDGSTFYPDSAKGRFTISRDNAKNTVYLQIDSLKPEDTAVYYCYMLDTWGQGTQVTVSS
On to B16, for which the Kd was 31 nM in assay [1], 2500 nM in assay [2] and 755 nM in assay [3].

B17: B8^V30 (VHH)
VHH: EVQLVESGGGVVQPGGSLRLSCAASGEIFSINFMRWYRQAPGKQREWVAGFTRDGSTNYPDSAKGRFTISRDNAKNTVYLQIDSLKPEDTAVYYCYMQDTWGQGTQVTVSS
For B17, the values for the Kd in assay [1], in assay [2] and in assay [3] were 24 nM, 3320 nM and 505 nM, respectively.

B18: B8^V17 (VHH)
VHH: EVQLVESGGGVVQPGGSLRLSCAASGEIFSINFMRWYRQAPGKQREFVAGFTRDGSTNYPDSAKGRFTISRDNAKNTVYLQIDSLKPEDTAVYYCYMLDTWGQGTQVTVSS
For B18, the values for the Kd in assay [1], in assay [2] and in assay [3] were 4.8 nM, 5.2 nM and 2.5 nM, respectively.

B19: A9a (VHH)
VHH: QVQLVQSGGGLVQAGGSLRLSCAASGSIFLINDMGWYRQAPGKQRELVAVRGGSTKYGDSVKGRFTISRDDAKNTVYLQMNSLKPEDTAVYYCHRESGLGSSEYWGQGTQVTVSS
For the molecule B19, the Kd was 1860 nM in assay [1], 841 nM in assay [2] and 965 nM in assay [3].
